Reference: the RNAGym collection of RNA variant scans (doi:10.7554/elife.80360)

B1: Twister Ribozyme (parent)
chain: AACACUGCCAAUGCCGGUCCCAAGCCCGGAUAAAAGUGGAGGGGGCGG

Variants of: B1
Test: self-cleavage, relative activity (ratio to wild type); higher = more cleavage; co-transcriptional

Going from AACAGUGCCAAUGCCGGUCCCAAGCCCGGAUAAAAAUGGAGGGGGCGG [C5G G36A] to AACACUGCCAAUGCCGGUCGCAAGCCCGGAUAAAAGUGGAGGGGGAGG [C20G C46A], the self-cleavage falls from 0.732 to 0.12.

First: AACAUUGACAAUGCCGGUCCCAAGCCCGGAUAAAAGUGGAGGGGGCGG [C5U C8A]
Second: AGCACUGCCAAUGCCGGUCCCAAGCCCGGAUAAAAGUGGAGGGGUCGG [A2G G45U]
The self-cleavage of the first is higher: 0.193 for the first, 0.159 for the second.

First: AACACUGCCAAUGCCGGUCACAAGCCCGGAUAAAAGUGGAGGCGGCGG [C20A G43C]
Second: AACACUGCCAAUGCCGGUCCCAAGCCCGGAUCAAAGUGGAUGGGGCGG [A32C G41U]
The self-cleavage of the first is lower: 0.0847 for the first, 0.603 for the second.

Compared with AACACUGCCACUCCCGGUCCCAAGCCCGGAUAAAAGUGGAGGGGGCGG [A11C G13C], AGCACUGCCAAUGCCGGUCCAAAGCCCGGAUAAAAGUGGAGGGGGCGG [A2G C21A] is lower in self-cleavage: 0.164 for the first, 0.0688 for the second.

First: AACACUGCAAAUGCCGGUACCAAGCCCGGAUAAAAGUGGAGGGGGCGG [C9A C19A]
Second: AACACUGCCAACGCCGGUCCCAAGCCCGGAUAGAAGUGGAGGGGGCGG [U12C A33G]
The self-cleavage of the first is lower: 0.089 for the first, 1 for the second.

First: AACACUGCCAAUGCCGGUCCCAAGCCCGGAUAAAAGUGGAGGAGGCGG [G43A]
Second: AACACUGCUAAUGCCGGUCCCAAGCCCGGAUGAAAGUGGAGGGGGCGG [C9U A32G]
The self-cleavage of the first is lower: 0.328 for the first, 0.729 for the second.

Going from AACACUGCCAAUGCAGGUCCCAAGCCCGGAUAGAAGUGGAGGGGGCGG [C15A A33G] to AACACUGCCAAUGCCGGUUUCAAGCCCGGAUAAAAGUGGAGGGGGCGG [C19U C20U], the self-cleavage falls from 0.578 to 0.327.

Compared with AACAGUGCCAAUGCCGGUCCCAAGCCCGGAUAAAAGUGGAGGGGGCAG [C5G G47A], AACACUGCCAAUGCCGGUCCCACCCCCGGAUAAAAGUGGAGGGGGCGG [A23C G24C] is lower in self-cleavage: 0.547 for the first, 0.124 for the second.

Going from AACACUGCCAAUGCCGGUCCCAGGCCCGGUUAAAAGUGGAGGGGGCGG [A23G A30U] to AACACUGCCAAUGCCGGUCCAAAGACCGGAUAAAAGUGGAGGGGGCGG [C21A C25A], the self-cleavage falls from 0.587 to 0.101.

First: AACACUCCCAAUGCCGGUCCCAAGGCCGGAUAAAAGUGGAGGGGGCGG [G7C C25G]
Second: AACACUGCCAAUGCCGGUCCCAAGACCGGAUAAAUGUGGAGGGGGCGG [C25A A35U]
The self-cleavage of the first is higher: 0.218 for the first, 0.135 for the second.

Compared with AACGCUGCCAAUGCCGGUCCCAAGCCCGGAUAAAAGUGGAGUGGGCGG [A4G G42U], AACACUGCCAAUGCCGGUCCCAAGCCCGUAUAAAAGUGGAGGGGGCUG [G29U G47U] is higher in self-cleavage: 0.195 for the first, 0.694 for the second.

Going from AACACUGCCAAUGCCGGUCCCAAGCCCCGAUAUAAGUGGAGGGGGCGG [G28C A33U] to AACACUGCCAAUGCCGGUCCCAAGCCCCGAUAAAAGUGGAGGCGGCGG [G28C G43C], the self-cleavage falls from 0.556 to 0.149.

Going from AACACUUCCAAUGCCGGUCCCAAGCCCGGAUAAAAGUUGAGGGGGCGG [G7U G38U] to AACACUGCCAAUGCCGGUCCCAAGCCCGGAUAAAAGUGGAAGGGGAGG [G41A C46A], the self-cleavage rises from 0.103 to 0.356.

First: AAUACUGCCAAUGCCGGUCCCUAGCCCGGAUAAAAGUGGAGGGGGCGG [C3U A22U]
Second: CACACUGCCAAUGCCGGUCCCAAGCCCGGAUAAAAGUGGAGGGGGGGG [A1C C46G]
The self-cleavage of the first is higher: 0.255 for the first, 0.181 for the second.

First: AACACCGCCAAUGCCCGUCCCAAGCCCGGAUAAAAGUGGAGGGGGCGG [U6C G16C]
Second: AACACUGCCAAUGCCGGUCCCAAGCCCGGAUAAAAAUGGAGGGGACGG [G36A G45A]
The self-cleavage of the first is lower: 0.146 for the first, 0.714 for the second.

Compared with CACACUGCCAGUGCCGGUCCCAAGCCCGGAUAAAAGUGGAGGGGGCGG [A1C A11G], AACACUGCCAAUGCGGGUCCCAAGCCCGGAUAAAAGUGGGGGGGGCGG [C15G A40G] is lower in self-cleavage: 0.218 for the first, 0.114 for the second.

Compared with AACACUGCCAAUGCCGGUCCCAAGCCCGGAUAAAAGUGUAGGGGGCGA [G39U G48A], ACCACCGCCAAUGCCGGUCCCAAGCCCGGAUAAAAGUGGAGGGGGCGG [A2C U6C] is lower in self-cleavage: 0.156 for the first, 0.0549 for the second.

First: AACACUGCCAAUGCCGGCCCCUAGCCCGGAUAAAAGUGGAGGGGGCGG [U18C A22U]
Second: AACACUGCCAAUGCCGGUCCCAAGCCGGGAUAAAAGUUGAGGGGGCGG [C27G G38U]
The self-cleavage of the first is higher: 0.243 for the first, 0.093 for the second.

Going from AACACUGCCAAUGCCGGUCCCAAGCCCGGAUAAAACUGGAGGGGGCGG [G36C] to AACAAUGCCAAUGCCGGUCCCAAGCCCGGAUGAAAGUGGAGGGGGCGG [C5A A32G], the self-cleavage falls from 0.691 to 0.542.

Compared with AACACUGCCAAUGUCGGUCCCAAGCCCGGAUAAAAGUGGAGCGGGCGG [C14U G42C], AACACUGCCAAUGCUGGUCCCAAGCCCGGAUAAAAGUGGAGGGGGCCG [C15U G47C] is lower in self-cleavage: 0.59 for the first, 0.415 for the second.

Compared with AACACGGCCAAUGCCGGUCCCAUGCCCGGAUAAAAGUGGAGGGGGCGG [U6G A23U], AACACUGCCAAUGCCGGUCCCAAGCCCGGAUAAGAGUGGAGGGCGCGG [A34G G44C] is higher in self-cleavage: 0.0909 for the first, 0.783 for the second.

First: AACACUGCCAAUGCCGGUCCCAAGCCCCGAUAAAAGUGGCGGGGGCGG [G28C A40C]
Second: AACACUGCCAAUGCGGGUCCCAAGCCCGGAUAAAAGUGCAGGGGGCGG [C15G G39C]
The self-cleavage of the first is higher: 0.179 for the first, 0.104 for the second.

Going from AACACUGCCAAUGCCGGUCCCAAGCCCGGAUAAAAGUGGAGGGCACGG [G44C G45A] to AACACUGCCAAUGCCAGUCCCAAGCCCGGAUAAAAGUGGAGGGGGCUG [G16A G47U], the self-cleavage falls from 0.762 to 0.487.

Compared with AACACUGCCAAUGCCGGUCUCAAGCCCGGAUAAGAGUGGAGGGGGCGG [C20U A34G], AACACUGCCAAUUCCGGUCCCAAGCCCGGAUAAAAGUGGAGGGGACGG [G13U G45A] is lower in self-cleavage: 0.373 for the first, 0.308 for the second.

First: AACACUCCCACUGCCGGUCCCAAGCCCGGAUAAAAGUGGAGGGGGCGG [G7C A11C]
Second: AACACUGCCAACGCCGGUCCCAAGCCCGGAUAAAAGUGGAGGAGGCGG [U12C G43A]
The self-cleavage of the first is lower: 0.0664 for the first, 0.243 for the second.

Going from AACACUGCCAACGCCGGUCCCAAGCACGGAUAAAAGUGGAGGGGGCGG [U12C C26A] to AACACUGCCAAUGCCGGUGCCAAGCCCGGGUAAAAGUGGAGGGGGCGG [C19G A30G], the self-cleavage falls from 0.658 to 0.468.

First: AACACUGCCAAUGCCGGUCCCAUGCCCGGAUUAAAGUGGAGGGGGCGG [A23U A32U]
Second: AACACUGCCAAUGCCGGUCCCAAGCCCGGAUAAACUUGGAGGGGGCGG [A35C G36U]
The self-cleavage of the first is higher: 0.494 for the first, 0.477 for the second.
